Target: FLAG-tagged CysD3 (DIO3, NM_001362, selenocysteine codon replaced with cysteine) (UniProt P55073)
Assay: co-IP

Chain of FLAG-tagged CysD3 (DIO3, NM_001362, selenocysteine codon replaced with cysteine) (P55073 whole entry): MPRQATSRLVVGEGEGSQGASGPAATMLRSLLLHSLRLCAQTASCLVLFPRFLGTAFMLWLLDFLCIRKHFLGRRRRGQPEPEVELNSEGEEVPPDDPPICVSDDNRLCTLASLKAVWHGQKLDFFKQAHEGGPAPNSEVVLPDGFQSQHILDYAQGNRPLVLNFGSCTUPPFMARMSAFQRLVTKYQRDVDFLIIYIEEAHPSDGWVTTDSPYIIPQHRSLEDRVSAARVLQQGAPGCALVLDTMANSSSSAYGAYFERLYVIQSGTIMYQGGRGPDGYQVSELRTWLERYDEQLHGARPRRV
Chain of Myc-tagged β3 integrin (NM_000212.2) (P05106 27-788): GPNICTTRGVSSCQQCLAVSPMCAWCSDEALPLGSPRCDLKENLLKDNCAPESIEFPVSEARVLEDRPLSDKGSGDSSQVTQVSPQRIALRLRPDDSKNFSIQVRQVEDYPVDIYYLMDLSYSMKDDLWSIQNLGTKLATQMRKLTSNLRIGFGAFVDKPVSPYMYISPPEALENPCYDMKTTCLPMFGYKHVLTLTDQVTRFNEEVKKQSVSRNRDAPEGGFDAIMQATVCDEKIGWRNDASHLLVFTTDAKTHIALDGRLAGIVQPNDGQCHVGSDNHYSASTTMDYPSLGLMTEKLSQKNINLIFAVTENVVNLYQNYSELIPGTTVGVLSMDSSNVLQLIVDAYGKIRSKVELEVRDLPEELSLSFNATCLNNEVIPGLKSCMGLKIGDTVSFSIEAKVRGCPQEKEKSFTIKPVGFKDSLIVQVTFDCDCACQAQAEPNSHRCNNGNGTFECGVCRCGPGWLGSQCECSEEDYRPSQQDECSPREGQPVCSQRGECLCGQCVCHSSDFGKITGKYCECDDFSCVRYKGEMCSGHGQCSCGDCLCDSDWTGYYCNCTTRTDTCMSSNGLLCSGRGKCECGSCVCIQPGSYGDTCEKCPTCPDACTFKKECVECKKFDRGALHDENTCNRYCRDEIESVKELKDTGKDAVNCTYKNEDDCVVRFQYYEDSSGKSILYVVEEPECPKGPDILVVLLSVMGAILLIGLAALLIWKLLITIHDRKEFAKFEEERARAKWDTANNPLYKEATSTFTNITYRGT

Myc-tagged β3 integrin (NM_000212.2) (from UniProt P05106-1 27-788) (receptor)
fold reduction of the co-immunoprecipitation in the presence of cRGD and Tetrac: > 2 fold

Reference: publication PMC8517284
